Test results published in the DeepSol protein solubility set.

Test: soluble on expression in E. coli; label from the status in PepcDB or PDB records

Sequence | soluble on expression in E. coli
MGKLALAAKITHVPSMYLSELPGKNHGCRQGAIDGHKEISKRCREMGVDTIIVFDTHWLVNSAYHINCADHFEGVYTSNELPHFIRDMTYNYEGNPELGQLIAEEALKLGVRAKAHNIPSLKLEYGTLVPMRYMNEDKHFKVVSISAFCTVHDFADSRKLGEAILKAIEQYDGTVAVLASGSLSHRFIDDQRAEEGMNSYTREFDRQMDERVVKLWREGQFKEFCNMLPEYADYCYGEGNMHDTVMLLGMLGWDKYDGKVEFITELFPSSGTGQVNAVFPLPA | not soluble
MSMSHINYNHLYYFWHVYKEGSVVGAAEALYLTPQTITGQIRALEERLQGKLFKRKGRGLEPSELGELVYRYADKMFTLSQEMLDIVNYRKESNLLFDVGVADALSKRLVSSVLNAAVVEGEPIHLRCFESTHEMLLEQLSQHKLDMIISDCPIDSTQQEGLFSVRIGECGVSFWCTNPPPEKPFPACLEERRLLIPGRRSMLGRKLLNWFNSQGLNVEILGEFDDAALMKAFGAMHNAIFVAPTLYAYDFYADKTVVEIGRVENVMEEYHAIFAERMIQHPAVQRICNTDYSALFSPAVR | soluble
MAHHHHHHMEGASHEAAEHTSASAMTRKERKKIEKSEKQAEELRQLSKKANAVNGDTDNPFSVTLETDQIAEGSRNITFNKVSVSVNGKTLFKDTTVKLSAGSRYGLMGPNGRGKSTILRLLASRELPVQSNLDLLLVEQEQEFTASELSAVDAVLQSHKKQNACADEAKALGAKAELSEAEMERLHFLEEELDIMGAAQADARARRILFGLGFPTEWHERPTSSFSGGWRKRIALASAVFIEPDVLMLDEPTNHLDLNAVIWLESYLTKAYSEMARRPKTLIVVSHDAGFLDEVCTHMVHVENYMLNYYRGSYSSFDEQLQQRHQELDKKYESVAKTIRDKKRNGMSNAQVEVWIKDQVNSGRLDPLFLEKRRDYTVNFPFPDPPELRDGCVCKLDSVSFNYPGGPVLFQNVSCALWTDSRITLCGPNGIGKSTLLNLMTGVLEPTAGYITLNRQVRIGRYNQHFVDKLPLEKTPVECIQALGIPEEDKARRLLGSFGLEGIVHKNQIATLSGGQKARVAFAAISAESPHFLLFDEPTNHLDVESIDALCTAIRNFKGGVLVVTHDARLIESTEMQIWVAGDKNVMPFNGSLDDYKNVVRAEFEKEEAMRLEERKQLLEHKTEARQLKQSGVADVTTALQEKKEKKQHEHAQGLDAFLTAAAKKKKPKKAKEES | soluble
MGSDKIHHHHHHMNNESLTLDAYPVEVEFPDIRPYAEGNCGIPYVFTFDSGVAGPHVMVNALTHGNEVCGAITVKGLLDAGVKPRRGRVTFAFANVDAYACFDPARPDASRFVDQDFNRVWTSAVLDDASRDSSELRRARAMRPVIDTVDLLLDLHSMHEKSRPLIVSGPLDKGIALARALGAPADVIVDEGHPEGRRMRDYADFGDPASARNALLIECGQHWETSAVTVARDSAARFLLNAGVIDAQDVPTGWLQPLAATQRVVRVTEPVVANSMDFRFAGPYTGLETFMEAGTVIGWRDGEPVVTPYPNCVLVMPSLRQLRPGVTVVRLGQLEA | not soluble
MGSDKIHHHHHHMNIAFVINPVAGLGATLNLKGSDGLALEDVSKSISIVRSHRFLKKLDFNGLHFFVPSGCMGESEVSIYTKEYDVIYTPSSPTTRQDTINFVKSIESADLLVFVGGDGTARDILNSRNDLPVIGVPAGVKMYSSVFAISPERAADAVNQVAKGNYRIDKAEVVDIDEELYRKGILSVKRYGQLKVPEAQYIVENSKAEYDIAGAEDIAEYVIEHMADETYIIGPGNTCKTIEEEMGIKSNVLGFDILRNKKLIKEDASESEIYEACSDKCMLVISPVGGQNFLLGRGNKQISDRILERVGEENLIVVSSPSKAEHLKYVYIDTQIPLWSNGYVKVLVGYGRYKLVKVIR | not soluble
MKQNKLHYTTMIMTQFPDISIQSVESLGEGFRNYAILVNGDWVFRFPKSQQGADELNKEIQLLPLLVGCVKVNIPQYVYIGKRSDGNPFVGYRKVQGQILGEDGMAVFPDDAKDRLALQLAEFMNELSAFPVETAISAGVPVTNLKNKILLLSEAVEDQVFPLLDESLRDYLTLRFQSYMTHPVYTRYTPRLIHGDLSPDHFLTNLNSRQTPLTGIIDFGDAAISDPDYDYVYLLEDCGELFTRQVMAYRGEVDLDTHIRKVSLFVTFDQVSYLLEGLRARDQDWISEGLELLEEDKANNFGANSA | not soluble
MGSDKIHHHHHHMANSRKHLIYLVYGRQTYHQEALFSIASAFAHLRDGAAHGLTVRVYTDDPSPYAGLPVQVREVTAEELVAWCQPHGYHFRAKHVALRDALEEADQALLIDTDTFFHSSPLRLFDRIQPGSLLCNAIGARYGEHRNFPLYRDLSPYLFERGWADDEMHQLNSGVIGLPREEAKILDRSLELMDELYPIANGAYTLEEFVLAVAAHKRLELVGCTDLIHHYWSRKQLFRAKIQAWLCKHGSSLLSAAALDDTLKVTDRLPRPPRAKRLLYKLGTLPLPAPMRQFSIELLYGCHEYSNEFDRACGPVWWEKAATNAIERYPQEPIAEQIEDWLNHSLLRNLLGSRANEIRQHLRQRDLL | not soluble
MGSDKIHHHHHHMTEDNNLGLEFKYLIVNDMDRKFGLWVNTVGYQSIPPDSPYPLKEHPSGYYFNAEKGRVLREYQLVYITKGRGLFSSDSTPERQVCKGRLMVLFPGQWHTYYPLRQTGWTEYYIGFEGPAIDTIVGDAFLSQERQILEVGINEELVSLFSRALEVAEADKISAQQYLSGIVLHMIGMILSISKNKVFEMSDVDQKIEQAKILMNENVSGNIDPEELAMRLNISYSWFRRVFKEYTGYAPAKYFQELKLRKAKQMLVGTSQSVKEISFFLGFQSTEYFFSFFKKRTGLTPLEYRSFGREE | not soluble
MSLPFTTILRMSRSRLVKQKGNKKRMTTVVSNAREIAAIDLGSNSFHMVVAKVVDQDLQLISRHKQRVRLAAGLDEQKNLDEESIQRGLECLAMFAERLQGFEPRNVRIAATHTLRQARNANLFIQRALDVLPFPIEIIPGSEEARLIYLGVAHTQPQADSMLVVDIGGGSTEMIIGKGFEAELLNSKQMGCVNFTERYFANGKLSRKNFAQAIVASEQKLESIASKYRKKGWQMAFGSSGTIKAIHEVLIGQGHEDGLITFERLSKLIEKLCEWDSIDDLQLPGLTDDRKPVFAAGVAILSAIFHGLNIKEMHFSDGALREGLLYEMEDRFKYSDIRLRTTENLAAKHLVDLEHAAKVKGHAREFLAQVANELGLPEGSELCDLLEWGALLHEVGLSINLQGFHRHSAYILRHNNMAGFNSEQQLVLSNLARFQRKSLKLNELDDFSLFKKKHIIGLIRVLRLAIVVNGQRNDDPLPPLTLSAKDDEWRLECEQPDWLENNKLLHADLQTEQEYWREVGWQLLFEGHHHHHH | not soluble
MAKNTSCGVQLRIRGKVQGVGFRPFVWQLAQQLNLHGDVCNDGDGVEVRLREDPEVFLVQLYQHCPPLARIDSVEREPFIWSQLPTEFTIR | soluble
LGSVKPATCEKPKFLEYKTCVGDLAVVIAKALDEFKEFCIVNAANEHMSHGGGVAKAIADFCGPDFVEYCADYVKKHGPQQKLVTPSFVKGIQCVNNVVGPRHGDSNLREKLVAAYKSVLVGGVVNYVVPVLSSGIFGVDFKISIDAMREAFKGCAIRVLLFSLSQEHIDYFDATCK | soluble
MKMTSRKLSDILKKRLQNDSWSFHFDREKDSLRIEDKNTGKGITLELPGIIAKWEQKKDDAIDEVVYYTEEALNAMKGQSQEMEGRESLIYPVIRSTSFPEKSSAGVPLVFDGHTAETRIYYALDLGNTYRLIDEKMLEKEGWTKERIRETASFNLRSLQTVVKEDEVAGNHFYFFRANDGYDASRVLNESILAEYEKNAEGTLAVSIPHQDVLIIADIRNNAGYDILGQMSMSFFANGTVPITALSFLYEDGKLEPIFILAKNRPKK | not soluble
DSRGCARWCPQDSSCVNATACRCNPGFSSFSEIITTPMETCDDINECATLSKVSCGKFSDCWNTEGSYDCVCSPGYEPVSGAKTFKNESENTCQDVDECSSGQHQCDSSTVCFNTVGSYSCRCRPGWKPRHGIPNNQKDTVCE | soluble
GMSVKVSVDDIDGITEVLNVYMNAAESGTGEEMSAAFHKDATIFGYVGDKLAFNGPIKDLYDWHNSNGPAKNVQSRITNIDIVGTVAHARVEAENWTNFKFSDLFLLLKLDGKWTIVNKVFHLHA | soluble
MDYLIVGAGFTGATLAERLAAAGKRVLVVDRRDHIGGNAYDEMDPHGVLVHRYGPHIFHTNSKKVFDYLSRFTEWRPYYHRVRAVVEGKEVPLPFSLATLRALFSPKLADRLEEKLIARFGYGARVPILRLREEEDPDLRFLADYVYKNVFEGYTLKQWGLRPEELSPSVTARVPVLVSHDTRYFQDAYQAMPKEGYTALFRRMLAHPNIKLLLQADWKEVEGEVKFARLVFTGPIDEFFGYLHGPLPYRSLRFRMELHPGPWAQEVGTVNYPNEHPYTRVTEFKHLTGQDYLPHSTLCYEYPEAYEPGRNEPYYPVPREENEERYRLYLEEAKKLKGVYFAGRLGDYRYYNMDQAVARALKLFEEIVHE | soluble
MGSDKIHHHHHHMNRTMSSINVLSLPVFNRDASGYDALRRGLIPCFDAFYGTALDLIDDWRDAEKLRVLDLGAGTGLFTAMLLTRHPDAQIHLIDASEKMLEQARKRFDGNPAITYAVADMANTELGGPWDLIISALAIHHLEDIGKKHLFGEIRGALSEGGLFVNVEQVLGHDPEVEARYARTWLQQVRRLGVAEVEIAKAHERMSHDRCSPLENQLQWMRDTGFCEIDCSFKAWRFAVLSGRR | not soluble
MQKKRFSKKYEVHYYEINSMQEATLLSLLNYMEDCAISHSTSAGYGVNELLAADAGWVLYRWLIKIDRLPKLGETITVQTWASSFERFYGNREFIVLDGRDNPIVKASSVWIYFNIKKRKPMRIPLEMGDAYGIDETRALEEPFTDFDFDFEPKVIEEFTVKRSDIDTNSHVNNKKYVDWIMETVPQQIYDNYKVTSLQIIYKKESSLGSGIKAGCVIDEQNTDNPRLLHKIWDKNTGLELVSAETIWQKIQS | soluble
YTEEELRVLLAESYKSGEIRKSELKYMNNIFTFDKRMAKEIMVPRNEMVSLSLDEDSISNLQETVKQTKYTRYPVVREDKDNVIGVINMKEVLFSMLTKDFSIKKHQIEPFVQPVIHVIETIPIYKLLLKMQKERTHMAILIDEYGGTSGLVTVEDIIEEIVGEIRDEFDADEVPHIRELGKDHYLLNAKLLISDVNSLLGTDLSE | soluble
MPRELGESLELRKGRHSVVYLTEKYAIKQFHERFRYNFLKEVKFLTLLQPFFFTPKLYFVDFANLRIVMERLRGRRFDEAFIRKAVERALEACFIMDVMGVEKQEMNHPDKHIIVGDDVYLIDFERARFKDRPSNLTQFCMYLRRFGIEIEKTLLKDYKTSVNCENFSRILHSVVEKLK | not soluble
SLVQHFDTLLVNIGQLLPMESKGPKRGKEMSELQLLEHAALGIRDGKVAFIGTMVEADTFTANQMIDCQGKLVTPGLVDPHTHLIFGGSREHEMALKQQGVPYLEILKNGGGILATVEATRAASEEELITKAICHLNRMLSYGVTTIEAKSGYGLDRETEWKQLRAAKAVGEQHPIDIVSTFLGAHAIPTSHRNDPDRFLDEMADMLGEIKEQNLAEFVDIFTETGVFTVEQSRTFLQKAKERGFGLKLHADEIDPLGGAELAGELGAISADHLVGASDQGIQKMAAAGTIACLLPGTTFYLGKDTYARARDMIDQGLAVTISTDFNPGSSPTENLQLIMSIAALRLKMTPEEIWHAVTVNGAHAIGRGDTAGQLAVGRAADVVVWDAKNYYYVPYHYGVNHVHSVWKKGEVVYERRRAFEGLSISR | soluble
